Values of other authors, collected in publication PMC7850986.

Legend:
IFNAR1 (Homo sapiens) = IFNAR1 (Homo sapiens) (UniProt P17181)
IFNAR2 (Homo sapiens) = IFNAR2 (Homo sapiens) (UniProt P48551)
UniProt P48551, sequence (P48551 27-243): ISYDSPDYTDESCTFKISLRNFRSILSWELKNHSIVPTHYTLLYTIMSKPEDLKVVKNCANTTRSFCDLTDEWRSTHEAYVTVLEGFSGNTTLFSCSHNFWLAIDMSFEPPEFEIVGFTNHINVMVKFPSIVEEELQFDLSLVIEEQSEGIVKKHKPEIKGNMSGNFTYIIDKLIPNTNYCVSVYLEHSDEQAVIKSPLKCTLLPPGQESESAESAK

UniProt P17181, sequence (P17181 28-436): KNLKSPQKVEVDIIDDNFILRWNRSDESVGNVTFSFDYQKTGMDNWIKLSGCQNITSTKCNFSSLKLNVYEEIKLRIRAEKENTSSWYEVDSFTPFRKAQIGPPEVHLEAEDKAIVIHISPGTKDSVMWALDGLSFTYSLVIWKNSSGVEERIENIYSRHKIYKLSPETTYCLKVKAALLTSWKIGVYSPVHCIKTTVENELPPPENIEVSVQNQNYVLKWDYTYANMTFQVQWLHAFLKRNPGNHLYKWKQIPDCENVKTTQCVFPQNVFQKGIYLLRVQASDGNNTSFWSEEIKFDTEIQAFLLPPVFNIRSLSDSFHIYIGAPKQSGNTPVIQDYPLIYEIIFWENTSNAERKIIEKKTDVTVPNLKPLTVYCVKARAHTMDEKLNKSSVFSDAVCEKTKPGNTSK

- Kd (IFNAR1 (Homo sapiens)): 100 nM
- Kd (IFNAR2 (Homo sapiens)): 0.1 nM
Substance: IFNβ (from UniProt P01574)
